In US12297265B2, “Antibody and use thereof” (SICHUAN KELUN-BIOTECH BIOPHARMACEUTICAL CO., LTD., priority 2018, dated 2025):
Numbering of substitutions follows the chain as printed.

B1: 19G10.14: mouse anti-human Claudin18.2 monoclonal antibody; VH SEQ ID NO: 52, VL SEQ ID NO: 53 (antibody, V domains shown)
VH: QVQLKESGPGLVAPSQSLSITCTVSGFSFTSYGVHWVRQPPGKGLEWLGVIWAGGSTDYNAALMSRLSIRKDNSKSQVFLKMNSLQIADTAMYYCARDGHGKVGFDVWGAGTTVTVSS
VL: DIVMTQSPSSLSVSAGEKVTMNCKSSQSLLNSGNQKNYLAWYQQKPGQPPKLLIYGASTRESGVPDRFTGGGSGTDFTLTISSVQAEDLAIYYCQNDHFYPFTFGSGTKLEIK
modifications: heavy chain variable region sequence of mouse antibody 19G10.14; light chain variable region sequence of mouse antibody 19G10.14
B2: 6B9.22: mouse anti-human Claudin18.2 monoclonal antibody; VH SEQ ID NO: 50, VL SEQ ID NO: 51 (antibody, V domains shown)
VH: QVQLQQSGAELVKPGASVKMSCKAFGYTFTSYPIEWMKQNHGKSLEWIGNFHPYNDDTKYNEKFKGKAKLTVEKSSSTVYLELSRLTSDDSAVYYCARTYYGNSFAYWGQGTLVTVSS
VL: DIVMTQSPSSLTVTAGEKVTMSCKSSQSLLNSGNQKNYLTWYQQKPGQPPKLLIYWASSRDSGVPHRFTGSGSGTDFTLTISSVQAEDLAFYYCQNDYFYPFTFGAGTKLELK
modifications: heavy chain variable region sequence of mouse antibody 6B9.22; light chain variable region sequence of mouse antibody 6B9.22
B3: 2C6.9: mouse anti-human Claudin18.2 monoclonal antibody; VH SEQ ID NO: 3, VL SEQ ID NO: 4 (antibody, V domains shown)
VH: QVQLKESGPGLVAPSQSLSITCTVSGFSLTRYGVSWVRQPPGKGLEWLGVIWGDGNTNFHSFLKSRLSISKDSSKSQVFLKLNSLQTDDTATYYCARVNFGNALDYWGQGTSVTVSS
VL: B2 VL with K18E, S59T, H66D, A86S, F91V, Y98F, F99I, Y100F, F102L
modifications: heavy chain variable region of mouse antibody 2C6.9; light chain variable region of mouse antibody 2C6.9
B4: 19H11.6: mouse anti-human Claudin18.2 monoclonal antibody; VH SEQ ID NO: 44, VL SEQ ID NO: 45 (antibody, V domains shown)
VH: EVMLVESGGGLVKPGGSLKLSCAASGFSFSNSAMSWVRQTPEKRLEGVATISSGDSFTYYPDTVKGRFTISRDNAKNSLYLQMSRLRSEDTAVYYCARQGYGNALDYWGQGTSVTVSS
VL: B2 VL with S22T, A57S, S59T, D61E, H66D, F91V, F99Y, F102L
modifications: heavy chain variable region sequence of mouse antibody 19H11.6; light chain variable region sequence of mouse antibody 19H11.6
B5: 1E9.2: mouse anti-human Claudin18.2 monoclonal antibody; VH SEQ ID NO: 1, VL SEQ ID NO: 2 (antibody, V domains shown)
VH: B4 VH with F57Y, T63S, R85S
VL: B2 VL with A57S, S59T, D61E, H66D, F91V, F99Y, F102L
modifications: heavy chain variable region of mouse antibody 1E9.2; light chain variable region of mouse antibody 1E9.2

molecular target: human Claudin18.2 (Homo sapiens, UniProt P56856); experiment: FACS affinity of mouse anti-human Claudin18.2 antibodies to Ba/F3-Claudin 18.2 cells; type: binding; set-up: expressed in transfected cells; host or cells: Ba/F3 (BaF/3, DSMZ ACC300), hygromycin-selected monoclonal line
Description: The affinity of the candidates to Claudin18.2 was measured using FACS. Single hybridoma clone 1E9.2, 2C6.9, 6B9.22, 9C8.1, 16A9.11, 19G10.14 and 19H11.6 were cultured in serum-free medium and mouse antibodies were purified from 100 mL supernatant by protein A chromatography (MabSelect SuRe, GE). Ba/F3-Claudin18.1 and Ba/F3-Claudin18.2 cells were incubated with the purified mouse antibodies at various concentrations on ice for 30 min and mouse IgG was used as negative control (Thermo Fisher, Cat: 31903), followed by washing with FACS buffer (PBS+2% FBS) twice. The cells were then incubated with a fluorescent goat-anti-mouse secondary antibody (Jackson ImmunoResearch, Cat: 115-605-071) on ice for 30 min before FACS analysis.

Max MFI (Max Mean Fluorescence Intensity)	Molecule
3.501 ×10^6	B1
3.624 ×10^6	B2
6.111 ×10^6	B3
6.008 ×10^6	B4
5.085 ×10^6	B5
